Measurements from patent US20110217734A1 (UNIVERSITY OF ILLINOIS AT URBANA CHAMPAIGN, published 2011).

Molecular target: the molecule itself
Experiment: size-exclusion chromatography, self-association

B1: RhiG-C-His (enzyme)
chain: MKMQLIDCTLRDGGNFNNWFFSAEDINQIILHLDKANVNIIEIGYIGGSGSNKEKSVGSLANCTPELLEQLPKTIHSHLAAMVVPSVCELHLLDNLNPQLIPWIRVASYPHNAEDALPYIEYLKNRGFHVSFNVMAASYIEEKDMAELAKKSHVFGADVFYMADSFGNLTPDGVRKRVAAAFDQADCPVGFHGHNNLGLAFTNALEAMDAGATFIDTSLCGMARGAGNLPTEQFVSAIHHWDKFGDIPYKLHPILTAAEYVLSSILSSPMKISTPEIISGISNIHYYFYDLVISKCREVNLDPLQVSTLLGQTLPKRVDMSYIESVIDQNFRQESAK
notes: Recombinant protein expressed in E. coli BL21(DE3), 38.7 kDa per chain; Size-exclusion chromatography gave a native MW of about 75 kDa (homodimer); also called RhiG purified as a C-terminal fusion with a hexahistidine tag; not shown: C-terminal hexahistidine tag from the pET26b vector
B1: binds.
